Experimental data reported in article PMC12123462, “Novel Click Coupling Chemistry to Explore Glycan Recognition” (ACS Central Science, 2025).

Substrate: CC(=O)N[C@H]1[C@H]([C@H](O)[C@H](O)CO)O[C@](OP(=O)(O)OC[C@H]2O[C@@H](n3ccc(N)nc3=O)[C@H](O)[C@@H]2O)(C(=O)O)C[C@@H]1O
Test: neoglycoprotein ELISA, product detected with APDye-532 SNA
Assay type: biochemical, Homo sapiens
Conditions: acceptor BSA-LNnT immobilised (250 ng/well), MES pH 6.5, 37 °C, 2 h
Source text: neoglycoprotein ELISA, product detected with APDye-532 SNA on recombinant human ST6Gal1 | K m of CMP-Sia for the recombinant human ST6Gal1

B1: recombinant human ST6Gal1 (Homo sapiens) (protein)
chain: KEKKKGSYYDSFKLQTKEFQVLKSLGKLAMGSDSQSVSSSSTQDPHRGRQTLGSLRGLAKAKPEASFQVWNKDSSSKNLIPRLQKIWKNYLSMNKYKVSYKGPGPGIKFSAEALRCHLRDHVNVSMVEVTDFPFNTSEWEGYLPKESIRTKAGPWGRCAVVSSAGSLKSSQLGREIDDHDAVLRFNGAPTANFQQDVGTKTTIRLMNSQLVTTEKRFLKDSLYNEGILIVWDPSVYHSDIPKWYQNPDYNFFNNYKTYRKLHPNQPFYILKPQMPWELWDILQEISPEEIQPNPPSSGMLGIIIMMTLCDQVDIYEFLPSKRKTDVCYYYQKFFDSACTMGAYHPLLYEKNLVKHLNQGTDEDIYLLGKATLPGFRTIHC
notes: recombinant
With B1 as the protein, how does the Km read?
Its Km is 141.4 µM.
